Like-named read-outs stand apart in the source and are kept apart here.

The nature of data set [1]: Plasma kinetic after single intravenous administration (HPLC with fluorimetric detector). It counts as in vivo, CD-1(ICR)BR mice. The settings on record: mice; for plasma concentration (mean from a triplicate result): LOD=0.0012 nmol/mL; for clearance: read-out: total plasma clearance; for Vd: read-out: volume distribution at steady state (Vdss). How it is done:
The plasma kinetic of the NIRF probe DA364 was evaluated after a single intravenous administration in CD-1(ICR)BR mice.
The fluorescent probe is administered at dose of 0.4 μmol/kg, corresponding to about 10 times the effective dose used in imaging studies (1 nmol/mouse, considering an average mouse body weight of 25 g). Animals were sacrificed at different time points up to and including 14 days after treatment and blood samples were collected for the determination of DA364 content, performed by using an HPLC method coupled with a fluorimetric detector.
The NIR agent DA364, pre-warmed at room temperature, was intravenously injected at a dose of 0.4 μmol/kg, via tail vein, at an injection rate of 1 mL/min with a Harvard infusion pump. The administered dose corresponds to about 10 times the effective dose used in imaging studies. The intravenous administration route was chosen as possible route of exposure for humans.
Animals (three for each time point) were sacrificed before and 5 min, 10 min, 20 min, 30 min, 60 min, 4 h, 24 h, 48 h, 7 days and 14 days after DA364.
The day of sacrifice animals were anesthetized with sevoflurane, at an expiratory concentration of 3-4% in induction and 2-3% in maintenance and then sacrificed by decapitation. Blood for HPLC determinations (at least 0.5 mL) was collected using heparinized tubes. Plasma obtained after centrifugation (2100 g for 10 min) was stored at −80° C. until the day of analysis.
Determination of the amount of DA364 in plasma samples was carried out by an HPLC method coupled with a fluorimetric detector previously prompted.
Plasma samples (S) were prepared by adding 100 μL of acetate buffer and 100 μL of a Methanol Acetonitrile solution (50:50) to 100 μL of diluted plasma. Tubes will be stirred and subsequently centrifuged at 4° C. for 10 minutes at 13000 g. Ten microliters of the clear supernatant will be injected into the HPLC equipment. Appropriate dilution was performed in case of plasma samples too concentrated.
The HPLC determination was performed by interpolating calibration curves of DA364 in plasma and organs, prepared by assaying calibration standard samples (CAL) (6 concentrations, 3 replicates for each concentration) of the fluorescent agent DA364.
Blood for HPLC determinations (at least 0.5 mL) was collected in heparinized tubes. Plasma concentration of DA364 was measured by an HPLC method coupled with a fluorimetric detector.
To evaluate the systemic exposure, Cmax and the area under the plasma DA364 concentration curve as a function of time (AUC) were calculated by non-parametric methods using the computer program WIN-NONLIN 6.3 (WinNonlin 6.3 SCI Software, Lexington, Ky., USA). For the tested dose, a non-compartmental analysis was performed using the average plasma concentrations from 3 animals for each time point. For Cmax and the corresponding tmax the observed values were reported. Area under the plasma concentration-time curve to the last observable plasma concentration (AUC(0 to t)) was calculated from observed data using the logarithmic trapezoidal method. […].

Data set [2] in a line: Normalized excitation and emission spectra. It counts as physicochemical. The source says:
The normalized excitation and emission spectra of the NIR agent in PBS (ex/em: 674/694; Stokes Shift: 20 nm) and in SERONORM (human-based control serum) (694/704, Stokes Shift 10 nm) are shown in FIG. 2. As shown in the figure, the interaction of the DA364 contrast agent with serum albumin promotes the shift of the emission maximum from 694 nm to 704 nm (in PBS and in SERONORM (human-based control serum) respectively) and also the reduction of the Stokes shift.

Setting [3] is: CD-1(ICR)BR, mouse, plasma, iv, 0.4 umol/kg, 0.4 μmol/kg i.v.
[4] abbreviates: CD-1(ICR)BR, mouse, plasma, iv, 0.4 umol/kg, 0.4 μmol/kg i.v., per animal.
The mark [5] stands for this setting: SERONORM (human-based control serum).

The term AUC(0-inf) denotes the area under the concentration-time curve extrapolated to infinity. The term Cmax denotes the highest concentration seen after dosing. By Tmax is commonly meant the time at which the peak concentration occurs. In general, clearance refers to a measure of how efficiently the substance is removed, as volume per time. `CC[N+]1=C(/C=C/C=C/C=C2/N(CCCCCC(=O)NC[C@@H]3C[C@@H]4CC[C@H]5C(=O)N[C@@H](CCCNC(=N)N)C(=O)NCC(=O)N[C@@H](CC(=O)O)C(=O)N[C@H]3C(=O)N45)c3ccc4c(S(=O)(=O)O)cc(S(=O)(=O)O)cc4c3C2(C)C)C(C)(C)c2c1ccc1c(S(=O)(=O)[O-])cc(S(=O)(=O)O)cc21` [DA364]: in data set [1] (1440 min after 0.4 μmol/kg i.v.), the “plasma concentration (mean from a triplicate result)” value (shortened to “plasma concentration”) is “<LOD”. Further, in data set [1] (2880 min after 0.4 μmol/kg i.v.), the “plasma concentration” value is listed as “<LOD”. In addition, in data set [1] (10080 min after 0.4 μmol/kg i.v.), the “plasma concentration” value is given as “<LOD”. Also, in data set [1] (20160 min after 0.4 μmol/kg i.v.), the “plasma concentration” value was “<LOD”. In data set [1] (setting [3]), the AUC(0-inf) was 1.28 µM·h, the peak concentration (Cmax) came to 1630 nM, the Tmax is 5 min and the clearance is 5 mL/min/kg. The Vd in data set [1] (setting [3]) came out at 0.329 L/kg. Besides, in data set [1] (setting [4]), the clearance came to 0.15 mL/min and the Vd was 0.01 L. Moreover, the half-life in data set [1] (CD-1(ICR)BR, mouse, plasma, iv, 0.4 umol/kg, 0.4 μmol/kg i.v., read-out: half life associated with the terminal elimination phase) worked out at 64 min. Moreover, the level at time molar at 5 min in data set [1] (CD-1(ICR)BR, mouse, plasma, iv, 0.4 umol/kg, 5 min after 0.4 μmol/kg i.v., read-out: plasma concentration (mean from a triplicate result)) is 1630 nM. The level at time molar at 10 min in data set [1] (CD-1(ICR)BR, mouse, plasma, iv, 0.4 umol/kg, 10 min after 0.4 μmol/kg i.v., read-out: plasma concentration (mean from a triplicate result)) amounted to 1100 nM. The level at time molar at 20 min in data set [1] (CD-1(ICR)BR, mouse, plasma, iv, 0.4 umol/kg, 20 min after 0.4 μmol/kg i.v., read-out: plasma concentration (mean from a triplicate result)) amounted to 612 nM. Also, the level at time molar at 0.5 h in data set [1] (CD-1(ICR)BR, mouse, plasma, iv, 0.4 umol/kg, 30 min after 0.4 μmol/kg i.v., read-out: plasma concentration (mean from a triplicate result)) came out at 518 nM. Also, in data set [1] (CD-1(ICR)BR, mouse, plasma, iv, 0.4 umol/kg, 60 min after 0.4 μmol/kg i.v., read-out: plasma concentration (mean from a triplicate result)), the level at time molar at 1 h is 278 nM. Moreover, the level at time molar at 4 h in data set [1] (CD-1(ICR)BR, mouse, plasma, iv, 0.4 umol/kg, 240 min after 0.4 μmol/kg i.v., read-out: plasma concentration (mean from a triplicate result)) amounted to 51 nM. In data set [2] (PBS), the “Stokes Shift” value was 20 nm, the “emission maximum (em)” value was 694 nm and the excitation maximum (ex) came out at 674 nm. Also, in data set [2] (setting [5]), the “Stokes Shift” value is given as 10 nm, the “emission maximum (em)” value is given as 704 nm and the excitation maximum (ex) was found to be 694 nm.
